Here are results for 17 molecules from patent US20240228562A1 (Pieris, published 2024).

Where a chain is given by its changes, count along the chain named.

Holding throughout (assay): SPR (Biacore)
One assay addresses T1, mouse CTGF (Abbexa) (mouse, UniProt P29268 26-348, limits assumed).
T1 construct: also called Murine CTGF; mCTGF
T1 sequence (looked up): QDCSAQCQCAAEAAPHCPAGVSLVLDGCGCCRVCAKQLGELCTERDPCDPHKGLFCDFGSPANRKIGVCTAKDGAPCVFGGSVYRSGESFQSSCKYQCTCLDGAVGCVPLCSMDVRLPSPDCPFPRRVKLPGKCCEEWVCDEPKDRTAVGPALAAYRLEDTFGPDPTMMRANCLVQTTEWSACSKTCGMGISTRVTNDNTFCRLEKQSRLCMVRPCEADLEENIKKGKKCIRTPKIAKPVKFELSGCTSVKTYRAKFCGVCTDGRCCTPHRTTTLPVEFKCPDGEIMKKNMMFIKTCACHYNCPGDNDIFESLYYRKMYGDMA
The procedure: (§1) The binding of exemplary lipocalin muteins to human (Creative Biomart), cynomolgus, rat (R&D Systems) and mouse CTGF (Abbexa) was determined by SPR using a Biacore instrument (Cytiva, formerly GE Healthcare). Some targets were fused to a human IgG1 Fc tag, and captured via the anti-human IgG antibody kit, others were directly immobilized.
(§2) For some measurements, human CTGF with a human IgG1 Fc Tag or rat or murine CTGF without a tag were directly immobilized to a CM5 Chip. The carboxyl groups on the chip were activated using 1-ethyl-3-(3-dimethylaminopropyl)-carbodiimide (EDC) and N-hydroxysuccinimide (NHS). […] Residual non-reacted NHS-esters were blocked by passing a solution of 1 M ethanolamine across the surface. The reference channel was activated/deactivated. For the capture setting, targets with an IgG Fc Tag at 0.25-2.5 μg/mL in HBS-EP+ buffer were captured by the anti-human IgG-Fc antibody at the chip surface for 180 s at a flow rate of 10 μL/min.
(§3) The binding assay was carried out with a contact time of 180 s, a dissociation time of 900-3600 s and a flow rate of 30 μL/min. All measurements were performed at 25° C. […] For the directly immobilized targets, the same regeneration conditions were used. Prior to the protein measurements, three startup cycles were performed for conditioning purposes.

In assay [1] the target is T2, recombinant human CTGF-Fc protein (Creative Biomart) (human).
T2 construct: Bought; also called human CTGF with a human IgG1 Fc Tag
T2 sequence (chain, as listed by the source limits assumed): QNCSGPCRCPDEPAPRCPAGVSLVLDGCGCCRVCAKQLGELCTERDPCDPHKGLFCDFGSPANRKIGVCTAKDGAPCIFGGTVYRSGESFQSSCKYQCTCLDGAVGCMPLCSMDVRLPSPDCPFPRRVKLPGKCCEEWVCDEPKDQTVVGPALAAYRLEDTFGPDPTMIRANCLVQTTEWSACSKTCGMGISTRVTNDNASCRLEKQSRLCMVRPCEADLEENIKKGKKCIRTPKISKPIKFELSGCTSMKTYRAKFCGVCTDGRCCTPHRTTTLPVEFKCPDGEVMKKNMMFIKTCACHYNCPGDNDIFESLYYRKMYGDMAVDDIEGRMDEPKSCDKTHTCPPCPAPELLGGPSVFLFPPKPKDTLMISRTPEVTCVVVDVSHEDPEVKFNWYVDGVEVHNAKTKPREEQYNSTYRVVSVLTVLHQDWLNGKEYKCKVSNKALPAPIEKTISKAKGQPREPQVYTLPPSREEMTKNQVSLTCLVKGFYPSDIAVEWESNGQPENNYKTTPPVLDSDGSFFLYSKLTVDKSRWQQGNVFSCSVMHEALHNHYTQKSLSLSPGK
On the procedure: as §1, §2, §3

For assay [2], the target named is T3, recombinant rat CTGF protein (R&D Systems) (rat, UniProt Q9R1E9 25-347).
T3 construct: Bought; also called rCTGF
T3 sequence: T1 sequence (looked up) with H16R, A148V
On the procedure:
as §1, §2, §3

B1: lipocalin mutein of SEQ ID NO: 16 (designed binder)
chain: QDSTSDLIPAPPLSKVPLQQNFQDNQFQGKWYVVGLAGNAILRTDKQPAKMFATIYELKEDKSYDVTSVRFEAKSCVYTIKTFVPGSQPGEFTAGNIKSAPGQTSTLVRVVSTNYNQHAMVFFKHVSQNREFFVITLYGRTKELTSELKENFIRFSKSLGLPENHIVFPVPIDQCIDG
notes: also called hNGAL mutein; not shown: C-terminal His-tag
Take B1: in the assay with mouse CTGF (Abbexa), the Kd (commonly a measure of binding affinity in units of concentration) was determined as 0.393 nM; the koff (as a rule, the rate constant with which the complex falls apart) is 6.34e-05 s⁻¹; the kon (as a rule, the second-order rate constant of association) worked out at 161000 M⁻¹ s⁻¹. In addition, in assay [1], the Kd was 0.76 nM, the koff amounted to 7.02e-05 s⁻¹ and the kon came out at 92300 M⁻¹ s⁻¹.

B2: lipocalin mutein of SEQ ID NO: 12 (designed binder)
chain: B1 chain with T44E, Q47Y, A73N, A94T
notes: as for B1
For B2, in the assay with mouse CTGF (Abbexa), binding was characterised by a dissociation constant (Kd) of 1.41 nM, the koff worked out at 0.000128 s⁻¹ and the kon came out at 91400 M⁻¹ s⁻¹. In addition, in assay [1], the Kd came to 2.4 nM, the koff came to 0.000133 s⁻¹ and the kon worked out at 55600 M⁻¹ s⁻¹.

B3: lipocalin mutein of SEQ ID NO: 11 (designed binder)
chain: B1 chain with T44E, V77S, I80S, F132T
notes: as for B1
In the assay with mouse CTGF (Abbexa), B3 had a Kd of 1.02 nM, a koff of 8.19e-05 s⁻¹ and a kon of 80100 M⁻¹ s⁻¹. Also, in assay [1], the Kd was 2.44 nM, the koff worked out at 0.000108 s⁻¹ and the kon worked out at 44400 M⁻¹ s⁻¹.

B4: lipocalin mutein of SEQ ID NO: 14 (designed binder)
chain: B1 chain with T44E, Q47Y, V77I, A94R, F132I
notes: as for B1
As for B4, in the assay with mouse CTGF (Abbexa), binding was characterised by a dissociation constant (Kd) of 0.369 nM, the koff worked out at 7.03e-05 s⁻¹ and the kon amounted to 190000 M⁻¹ s⁻¹. Besides, in assay [1], the Kd was determined as 0.523 nM, the koff was determined as 5.34e-05 s⁻¹ and the kon stood at 102000 M⁻¹ s⁻¹.

B5: lipocalin mutein of SEQ ID NO: 18 (designed binder)
chain: B1 chain with L36I, T44D, Q47Y, A73N, V77I, A94H, A100H, F132I
notes: as for B1
As for B5, in assay [1], the Kd is 0.074 nM, the koff is 3.05e-06 s⁻¹ and the kon came to 40900 M⁻¹ s⁻¹.

B6: lipocalin mutein of SEQ ID NO: 19 (designed binder)
chain: B1 chain with T44E, V77S, F123H, H125A, F132S
notes: as for B1
Consider B6, for which, in the assay with mouse CTGF (Abbexa), the Kd turned out to be 0.273 nM, the koff is 2.54e-05 s⁻¹ and the kon was determined as 93200 M⁻¹ s⁻¹. In assay [1], the Kd is 0.918 nM, the koff was 5.2e-05 s⁻¹ and the kon was found to be 56600 M⁻¹ s⁻¹.

B7: lipocalin mutein of SEQ ID NO: 13 (designed binder)
chain: B1 chain with T44E, Q47Y, A73N, I80S, A94T
notes: as for B1
Regarding B7, in assay [1], the Kd was 0.049 nM, the koff turned out to be 2.51e-06 s⁻¹ and the kon came to 51000 M⁻¹ s⁻¹.

B8: lipocalin mutein of SEQ ID NO: 21 (designed binder)
chain: B1 chain with T44E, V77S, H125A, S127R, Q128G, N129A, F132S, V134N, T136A
notes: as for B1
In the assay with mouse CTGF (Abbexa), B8 returned a Kd of 0.173 nM, a koff of 3.94e-05 s⁻¹ and a kon of 228000 M⁻¹ s⁻¹. Moreover, in assay [1], the Kd was 0.523 nM, the koff is 6.63e-05 s⁻¹ and the kon came out at 127000 M⁻¹ s⁻¹.

B9: lipocalin mutein of SEQ ID NO: 10 (designed binder)
chain: B1 chain with T44E, V77S, F123W, H125S, S127A, Q128G, N129T, F132S, V134N, T136A
notes: as for B1
Regarding B9, in assay [2], the Kd worked out at 0.46 nM, the koff was determined as 4.08e-05 s⁻¹ and the kon amounted to 88800 M⁻¹ s⁻¹. Moreover, in assay [1], the Kd was 0.033 nM, the koff came out at 2.23e-06 s⁻¹ and the kon turned out to be 67700 M⁻¹ s⁻¹.

B10: lipocalin mutein of SEQ ID NO: 5 (designed binder)
chain: QDSTSDLIPAPPLSKVPLQQNFQDNQFQGKWYVVGKAGNALREDKEPPKMWATIYELKEDKSYDVTHVHFLTKKCKYLIDTFVPGSQPGEFTIGAIKSGPGLTSPLVRVVSTNYNQHAMVFFKWVSQNREWFTITLYGRTKELTSELKENFIRFSKSLGLPENHIVFPVPIDQCIDG
notes: as for B1
Take B10: in assay [2], the Kd was 1.23 nM, the koff was 0.000362 s⁻¹ and the on-rate (kon) is 294000 M⁻¹ s⁻¹. Besides, in assay [1], the Kd amounted to 0.315 nM, the koff is 6.65e-05 s⁻¹ and the kon came out at 211000 M⁻¹ s⁻¹.

B11: lipocalin mutein of SEQ ID NO: 30 (designed binder)
chain: QDSTSDLIPAPPLSKVPLQQNFQDNQFHGKWYVVGWAGNIKLREDKDPFKMSATIYELKEDKSYDVTEVVFEQKKCHYIIKTFVPGSQPGEFTLGDIKSPPGETSSLVRVVSTNYNQHAMVFFKKVFQNREFFWITLYGRTKELTSELKENFIRFSKSLGLPENHIVFPVPIDQCIDG
notes: also called optimized lipocalin mutein; hNGAL mutein
On to B11, for which the binding result in assay [1] is recorded as “binds”.

B12: lipocalin mutein of SEQ ID NO: 32 (designed binder)
chain: QDSTSDLIPAPPLSKVPLQQNFQDNQFQGKWYVVGWAGNVKLREDKQPFKMSATIYELKEDKSYDVTEVVFEQKKCHYIIKTFVPGSQPGEFTLSPISSSPGLVSHLVRVVSTNYNQHAMVFFKKVHQNREFFWITLYGRTKELTSELKENFIRFSKSLGLPENHIVFPVPIDQCIDG
notes: as for B1
As to B12, in the assay with mouse CTGF (Abbexa), binding was characterised by a dissociation constant (Kd) of 1.98 nM, the koff amounted to 0.000264 s⁻¹ and the kon turned out to be 133000 M⁻¹ s⁻¹. In addition, in assay [1], the Kd is 0.587 nM, the koff stood at 6.39e-05 s⁻¹ and the kon is 109000 M⁻¹ s⁻¹.

B13: lipocalin mutein of SEQ ID NO: 8 (designed binder)
chain: QDSTSDLIPAPPLSKVPLQQNFQDNQFQGKWYVVGLAGNYGLRTDKRPSKMFATIYELKEDKSYDVTSVRFEQERCHYTIRTFVPGSQPGEFTSGNIGNYPGSYSTLVRVVSTNYNQHAMVFFKSVIQNREYFAITLYGRTKELTSELKENFIRFSKSLGLPENHIVFPVPIDQCIDG
notes: as for B1
Take B13: in the assay with mouse CTGF (Abbexa), the Kd was found to be 1.81 nM, the koff worked out at 0.000131 s⁻¹ and the kon came to 72000 M⁻¹ s⁻¹. In assay [1], the Kd was 2.52 nM, the koff was 0.000114 s⁻¹ and the kon worked out at 45400 M⁻¹ s⁻¹.

B14: lipocalin mutein of SEQ ID NO: 27 (designed binder)
chain: QDSTSDLIPAPPLSKVPLQQNFQDNQFQGKWYVVGLAGNYRLREDKDPSKMGATIYELKEDKSYDVTQVQFDDKKCLYVIETFVPGSQPGEFTLGAIKSYPGLTSQLVRVVSTNYNQHAMVFLKKVYGSEEYFHITLYGRTKELTSELKENFIRFSKSLGLPENHIVFPVPIDQCIDG
notes: as for B1
With B14, in the assay with mouse CTGF (Abbexa), the Kd worked out at 4.16 nM, the dissociation rate constant (koff) was 0.000172 s⁻¹ and the kon stood at 41400 M⁻¹ s⁻¹. In addition, in assay [1], the dissociation constant (Kd) worked out at 0.802 nM, the koff is 2.45e-05 s⁻¹ and the kon amounted to 30500 M⁻¹ s⁻¹.

B15: lipocalin mutein of SEQ ID NO: 26 (designed binder)
chain: B14 chain with A96N, S99V, G102T, T104E, L123F, G128Q, S129N, E130R, Y132V, H134W
notes: as for B1
In the case of B15, in the assay with mouse CTGF (Abbexa), the Kd was determined as 5.89 nM, the koff was 0.000208 s⁻¹ and the kon came to 35300 M⁻¹ s⁻¹. In assay [1], the Kd worked out at 1.32 nM, the koff turned out to be 3.06e-05 s⁻¹ and the kon came out at 23200 M⁻¹ s⁻¹.

B16: lipocalin mutein of SEQ ID NO: 28 (designed binder)
chain: B14 chain with L123V, Y127W, G128P, S129N, E130L, H134Q, T136V
notes: as for B1
On to B16, for which, in the assay with mouse CTGF (Abbexa), the Kd came out at 1.35 nM, the koff is 8.23e-05 s⁻¹ and the kon was 60700 M⁻¹ s⁻¹. In addition, in assay [1], the Kd turned out to be 0.517 nM, the dissociation rate constant (koff) stood at 2.61e-05 s⁻¹ and the kon is 50400 M⁻¹ s⁻¹.

B17: lipocalin mutein of SEQ ID NO: 4 (designed binder)
chain: QDSTSDLIPAPPLSKVPLQQNFQDNQFHGKWYVVGRAGNNRLREDKDPPKMWATIYELKEDKSYDVTHVHFMTKKCRYIIDTFVPGSQPGEFTLGAIKSGPGMTSPLVRIVSTNYNQHAMVFFKWVNQNREWFTITLYGRTKELTSELKENFIRFSKSLGLPENHIVFPVPIDQCIDG
notes: as for B11
In the case of B17, the binding result in assay [1] is on record as “binds”.
